Patent US20020028453A1 (CURIS, published 2002)

Biological target: T1, α-2 macroglobulin (Homo sapiens (Human), UniProt P01023 24-1474, Native alpha-2-macroglobulin is a glycosylated homotetramer (disulfide-linked dimers) with an internal thioester; one subunit is given.)
T1 construct: also called alpha-2 macroglobulin
T1 sequence: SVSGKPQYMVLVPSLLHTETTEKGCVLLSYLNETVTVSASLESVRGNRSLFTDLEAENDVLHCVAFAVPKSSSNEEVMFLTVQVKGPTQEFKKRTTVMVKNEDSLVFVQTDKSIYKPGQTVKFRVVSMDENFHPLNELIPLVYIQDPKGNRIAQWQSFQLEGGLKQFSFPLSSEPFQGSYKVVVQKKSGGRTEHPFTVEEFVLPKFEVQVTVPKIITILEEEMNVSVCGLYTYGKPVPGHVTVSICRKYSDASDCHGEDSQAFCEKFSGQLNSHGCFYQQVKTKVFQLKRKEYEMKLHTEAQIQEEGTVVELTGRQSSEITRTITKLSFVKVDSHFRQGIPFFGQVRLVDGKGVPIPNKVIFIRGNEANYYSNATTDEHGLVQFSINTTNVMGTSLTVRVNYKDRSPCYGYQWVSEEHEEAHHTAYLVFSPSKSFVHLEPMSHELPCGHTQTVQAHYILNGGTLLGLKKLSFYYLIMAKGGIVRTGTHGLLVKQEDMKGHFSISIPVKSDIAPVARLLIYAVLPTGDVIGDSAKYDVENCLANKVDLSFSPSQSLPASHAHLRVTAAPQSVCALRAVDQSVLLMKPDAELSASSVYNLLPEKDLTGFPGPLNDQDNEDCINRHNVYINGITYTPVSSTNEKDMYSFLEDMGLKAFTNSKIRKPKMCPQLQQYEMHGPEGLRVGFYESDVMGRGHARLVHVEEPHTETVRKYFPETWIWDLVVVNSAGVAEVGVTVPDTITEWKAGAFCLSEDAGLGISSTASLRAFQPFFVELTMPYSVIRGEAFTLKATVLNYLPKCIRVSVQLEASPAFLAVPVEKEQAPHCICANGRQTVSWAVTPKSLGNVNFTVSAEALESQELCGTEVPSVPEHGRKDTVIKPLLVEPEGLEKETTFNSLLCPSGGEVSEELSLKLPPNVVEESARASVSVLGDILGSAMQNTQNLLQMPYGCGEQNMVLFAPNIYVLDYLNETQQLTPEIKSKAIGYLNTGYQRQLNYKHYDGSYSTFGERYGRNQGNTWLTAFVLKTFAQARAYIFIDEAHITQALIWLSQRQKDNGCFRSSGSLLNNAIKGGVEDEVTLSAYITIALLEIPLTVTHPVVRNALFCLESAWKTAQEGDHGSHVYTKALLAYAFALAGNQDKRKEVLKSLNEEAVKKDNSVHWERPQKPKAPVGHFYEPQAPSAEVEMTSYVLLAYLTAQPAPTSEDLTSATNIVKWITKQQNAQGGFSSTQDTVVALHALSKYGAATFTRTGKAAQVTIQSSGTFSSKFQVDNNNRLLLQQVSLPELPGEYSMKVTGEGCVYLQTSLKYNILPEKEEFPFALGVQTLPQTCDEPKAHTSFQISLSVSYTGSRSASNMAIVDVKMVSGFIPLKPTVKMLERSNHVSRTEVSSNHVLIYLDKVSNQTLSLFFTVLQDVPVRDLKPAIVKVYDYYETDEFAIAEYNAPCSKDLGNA
Test: competition binding assay, immobilized α-2 macroglobulin
Experimental: OP-1 was determined to interact specifically with α-2 macroglobulin in a standard competition binding assay, using immobilized, commercially available α-2 macroglobulin, and labeled and unlabeled OP-1 protein. […] This N-terminal portion of the protein, which is not part of the crystal structure, is positively charged and likely is highly flexible in solution.

fold less affinity (against untruncated OP-1): 10 fold
B1: Truncated mature OP-1 (ligand, UniProt P18075 315-431, looked up)
chain: MANVAENSSSDQRQACKKHELYVSFRDLGWQDWIIAPEGYAAYYCEGECAFPLNSYMNATNHAIVQTLVHFINPETVPKPCCAPTQLNAISVLYFDDSSNVILKKYRNMVVRACGCH
notes: range 23-139; The range is on mature-protein numbering (His 139 = C-terminus); also called truncated mature OP-1 (first 22 amino acids cleaved by trypsin)
